Test results from publication PMC8119438.

Target: GST-Rab12 (mouse) (UniProt P35283)
Assay: pull-down; 20 μg GST, GST-Rab12 or GST-Rab12(K71R) on glutathione agarose beads, 18 h at 4 °C with 500 μg lysate of RBL cells transfected with T7-tagged RILP, RILP mutants, RILP-L1 or RILP-L2, 0.5 mM GTPγS; blot anti-T7 (Fig. 2b,c; Supplementary figure S3)

Chain of UniProt P35283 (P35283 other isoform, or with tags, fused parts or gaps): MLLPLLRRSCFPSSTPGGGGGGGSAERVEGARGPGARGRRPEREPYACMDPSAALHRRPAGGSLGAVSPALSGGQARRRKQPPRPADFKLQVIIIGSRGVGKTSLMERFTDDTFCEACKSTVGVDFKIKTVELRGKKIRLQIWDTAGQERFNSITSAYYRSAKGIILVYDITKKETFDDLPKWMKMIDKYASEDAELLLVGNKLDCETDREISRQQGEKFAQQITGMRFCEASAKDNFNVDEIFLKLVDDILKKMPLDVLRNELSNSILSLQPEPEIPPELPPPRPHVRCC

Row | percent by which the pulldown by Rab12 was impaired, against wild type RILP | percent by which the pulldown by Rab12 was inhibited, against wild type RILP | Binder
1 | 85% | – | T7-RILP(L231A) (natural protein) MEPRRAAPRLPSQASSSVGAGSAAELVYHLAGALGTELQGLARRFGPDAAAGLVPLVVRALELLEKAAVGPAPDSLQVSAQQAEVELRRLREENQRLRQELGSGPQEERALLRQLKEVTDRQRDELRAHNRDLQRRSQETEALQEQLQRLLLINSELRHKLAAVQTQLRAAQDRERERQIAQDGSSQLAKEQSLEPDAATSDDPVDTQKQPGNLPEAVQCGFSREELKQIAQERNELKANVFLLKEELAYFQRELLTDHRVPGLLLEAMKVAVKKQRRKIKAKMLGTPEEAESSEDEDGSWLLLSNDKEDVPLVPESRIQNFFGLWYRGETEAPEAETSNPASSSLQKGEETPQQPHLQPVNSPPAPNS
2 | – | 90% | T7-RILP(E233A) (natural protein) MEPRRAAPRLPSQASSSVGAGSAAELVYHLAGALGTELQGLARRFGPDAAAGLVPLVVRALELLEKAAVGPAPDSLQVSAQQAEVELRRLREENQRLRQELGSGPQEERALLRQLKEVTDRQRDELRAHNRDLQRRSQETEALQEQLQRLLLINSELRHKLAAVQTQLRAAQDRERERQIAQDGSSQLAKEQSLEPDAATSDDPVDTQKQPGNLPEAVQCGFSREELKQILQARNELKANVFLLKEELAYFQRELLTDHRVPGLLLEAMKVAVKKQRRKIKAKMLGTPEEAESSEDEDGSWLLLSNDKEDVPLVPESRIQNFFGLWYRGETEAPEAETSNPASSSLQKGEETPQQPHLQPVNSPPAPNS
